20 molecules from patent publication US20220112288A1 (published 2022) can be followed below.

First the molecules themselves.
B1: 75110_01A06A (antibody, V domains shown)
VH: EVQLVESGGGLVQPGGSLRLSCAASGFTFSSYWMSWVRQAPGKGLEWVANINEDGNEKYYVDSVKGRLTISRDNAKNSLYLQMNSLRAEDTAVYFCAREGGQWLSLDYWGQGALVTVSS
VL: DIQMTQSPSSVSASVGDRVSITCRASQGISSWLAWYQQKPGKAPKILIYGASSLQSGVPSRFSGSGSGTDFTLTISSLQPEDFATYYCQQANSFPWTFGQGTKVEIK
notes: Tested as antibody purified from AlivaMab Mouse hybridoma supernatant (captured by anti-mouse IgG Fc)
B2: 75110_01C18A (antibody, V domains shown)
VH: EVQLVESGGGLIQPGGSLRLSCAASGFTVSSNYMNWVRQAPGKGLEWVSVIYAGDNTYSADSVKGRFTISRDNSNNTLCLQMNSLRAEDTAVYYCAREGGTTGAFDIWGQGTMVTVSS
VL: B1 VL with S20T, S30N, I46L, G50A, A91G, W96Y, V104L
notes: as for B1
B3: 75110_03D16A (antibody, V domains shown)
VH: B1 VH with E53Q, N56G, L68F, F95Y, A97V, S105A, A113T
VL: B1 VL with S20T, A34T, I46F, G50A, S67F
notes: as for B1
B4: 75110_04K10A (antibody, V domains shown)
VH: B1 VH with E53Q, N56S, L68F, M83L, V93M, F95Y, A113T
VL: B1 VL with S20T, I46V, A51V, L54F, T72I
notes: as for B1
B5: 75110_02N15A (antibody, V domains shown)
VH: B1 VH with L68F, Y80F, S105A, Y108H
VL: B1 VL with S20T, I46F, Y49S, I106F
notes: as for B1
B6: 75110_13P22A (antibody, V domains shown)
VH: QVQLQQWGAGLLKPSETLSLTCAAYGGSFSGYYWSWIRQSPGKGLEWIGEINQSGNTNYNPSLKSRVTISADTSKNQFSLKLSSVTAADTAVYYCARVLNWFDYWGQGILVTVSS
VL: B1 VL with S20T, S31D, P40S, K45D, I46L, Y49F, G50A, W96Y, V104L
notes: Tested as antibody purified from AlivaMab Mouse Kappa hybridoma (human V regions, kappa light chain, mouse Fc captured by anti-mouse Fc sensors)
B7: 75110_12H19A (antibody, V domains shown)
VH: B1 VH with K43Q, Y60H, A88G, E89V, S105A
VL: B1 VL with I46L, S53G
notes: as for B6
B8: 75110_07N04A (antibody, V domains shown)
VH: QVQLQESGPGLVKPSETLSLTCSVSGVSSTSFYWSWIRQPAGKGLDWIGRIYTSGSTNYNPSLKSRVTMSVDTSKNQFSLKLSSVTAADTAVYYCARDPGYSDAFAIWGQGTMVTVSS
VL: not shown
notes: as for B6
B9: 75110_12K21A (antibody, V domains shown)
VH: B6 VH with A24V, Y25S, S40P, Q53H, N56S, Y59C, A71V, K75N, W101Y, I109T
VL: DIQMTQSPSSVSASVGDRVTITCRASPDIANWLAWYQQKPGKAPELLIYAASSLQSGVPSRFSGSGSGTDFTLTISSLQPEDFATYFCQQANSFPLTFGGGTKVESK
notes: as for B6
B10: 75110_13P21A (antibody, V domains shown)
VH: B6 VH with A24V, Y25S, S40P, Q53H, N56S, Y59C, A71V, K75N, W101Y, I109T
VL: B9 VL
notes: as for B6
B11: 75110_13C13A (antibody, V domains shown)
VH: B6 VH with A24V, Y25S, S40P, Q53H, N56S, Y59C, A71V, V92M, W101F, I109T
VL: B9 VL with S7T, D28G, A30S
notes: as for B6
B12: 75110_07J24A (antibody, V domains shown)
VH: QAQLQESGPGLVKPSETLSLTCTVSGGSISSYYYNWIRQPAGKGLEWIGRIYTSGRTDYNPSLKSRVTMSADTSKNQFSLKLSSVTAADTAVYYCARDEGPTDAFDIWGQGTMVTVSS
VL: DIVMTQTPLSLPVTPGEPASISCRSSQSLLDSDDGNTYLDWYLQKPGQSPHLLIYTLSYRASGVPDRFSGSGSGSDFTLKISRVEAEDVGVYYCMQRIEFPFTFGPGTKVDIK
notes: Tested as antibody purified from AlivaMab Mouse Kappa hybridoma (human V regions, kappa light chain, mouse Fc captured by anti-mouse Fc sensors); also called 75110_07124A
B13: 75110_07J02A (antibody, V domains shown)
VH: EVQLVESGGGLVQPGGSLRLSCAASGFTFSSYWMSWVRQAPGKGLEWVANIKEDGSEKYYVDSVKGRFTISRDNAKNSLYLQMNSLRAEDTAVYYCARDGSYSGYGMDVWGQGTTVTVSS
VL: AIQMTQSPSSLSASVGDRVTITCRASQGIRNDLGWYQQKPGKAPKLLIYAASSLQSGVPSRFSGRGSGTDFALTISSLQPEDFATYYCLLDYNYPYTFGQGTRLEIK
notes: Tested as antibody purified from AlivaMab Mouse Kappa hybridoma (human V regions, kappa light chain, mouse Fc captured by anti-mouse Fc sensors); also called 75110_07102A
B14: 75110_10K21A (antibody, V domains shown)
VH: EVQLVESGGGLVQPGGSLRLSCAASGFTFSSYWMTWVRQAPGKGLEWVANIKQDGSEKYYVDSVKGRFTISRDNAKNSLYLQMNSLRAEDTAVYYCVRDRYDALDIWGQGTMVTVSS
VL: B13 VL with G34N, R65S, A72T, P80A, L90K, R103K
notes: as for B6
B15: 75110_08A13A (antibody, V domains shown)
VH: B13 VH with T28I, E53Q, V61M, G100N, S103Y, G104Y
VL: B13 VL with N31D, Y49F, R61S, R65S, A72T, L90H, D91H, R103K
notes: as for B6
B16: 75110_14G10A (antibody, V domains shown)
VH: EVQLVESGGGLVKPGGSLRLSCAASGFTFSSYSMNWVRQAPGKGLEWVSFISSSSSYIYYADSVKGRFTISRDNAKNSLYLQMNSLRAEDTAVYYCARERGDDYGDYEGAFDIWGQGTMVTVSS
VL: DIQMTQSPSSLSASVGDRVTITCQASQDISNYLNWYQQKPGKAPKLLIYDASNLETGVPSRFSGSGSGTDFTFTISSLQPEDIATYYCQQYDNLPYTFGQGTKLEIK
notes: as for B6
B17: 75110_08F20A (antibody, V domains shown)
VH: QVQLQESGPGLVKPSETLSLTCSVSGGSISTYYWSWIRQPAGKGLEWIGRICTTENTNYNPSLKSRVTMSIDSSKNQFSLKLSSVTAADTAVYYCARDLERLNYYGMDVWGQGATVTVSS
VL: DIQMTQSPSSLSASVGDRVTITCQASQDISKYLNWYQQKPGIAPKLLIYDASNLETGVPSRFSGSGSGTDFTFTISSLQPEDFATYYCQQYDSLPITFGQGTRLEIK
notes: as for B6
B18: 75110_14N19A (antibody, V domains shown)
VH: B17 VH with S23T, T31R, T54S, T57P, S62A, I71V, S73T, D98E, A114T
VL: B17 VL with S7F, K31N, I42K, T56S, S65R, Y86F, S93T
notes: as for B6
B19: 75110_08G08A (antibody, V domains shown)
VH: B17 VH
VL: B17 VL with K31N, F83I
notes: as for B6
B20: 75110_14I16A (antibody, V domains shown)
VH: QVQLQESGPGLVKPSETLSLTCTVSNGSISSYYWSWIRQSAGKGLEWIGRIYTSGSTNYNPSLKSRVTMLVDTSKNQFSLKLSSVTAADTAVYYCARDREDYYYYGMDVWGQGTTVTVSS
VL: DIQMTQSPSSLSASVGDRVTITCQASHDISNYLNWYQQKPGKAPKLLLYYASNLETGVPSRFSGSGSGTDFTFTITSLQPEDIGTYSCQQYDNLPLTFGGGTKVEIK
notes: Tested as antibody purified from AlivaMab Mouse Kappa hybridoma (human V regions, kappa light chain, mouse Fc captured by anti-mouse Fc sensors); also called 75110_14116A

Positions count from the first letter of the chain named.

One test addresses T1, Recombinant human CD4 (R&D Systems, Cat. 10327-CD) (human, UniProt P01730 26-390, limits assumed).
T1 construct: Soluble analyte in the Octet assay
The test can be described thus: BLI Octet, mAb on anti-mouse Fc sensor, CD4 100/50/25 nM, 1:1 global fit. (Biolayer interferometry detects binding as a change in optical thickness at a sensor tip.)
B1: the Kd (as a rule, the concentration at which binding is half-saturated) was determined as 14 nM; the Response turned out to be 0.36; the koff (commonly the first-order rate constant of dissociation) is 0.0014 s⁻¹; the kon (in general, a measure of how fast the partners come together) is 100000 M⁻¹ s⁻¹.
On the same counts, the results for B2 are 24 nM, 0.13, 0.0047 s⁻¹ and 200000 M⁻¹ s⁻¹.
On the same counts, the results for B3 are 10 nM, 0.05, 0.0008 s⁻¹ and 78000 M⁻¹ s⁻¹.
On the same counts, the results for B4 are 110 nM, 0.1, 0.0042 s⁻¹ and 39000 M⁻¹ s⁻¹.
Take B5: the Kd amounted to 11 nM, the Response was found to be 0.25, the koff stood at 0.0017 s⁻¹ and the kon turned out to be 160000 M⁻¹ s⁻¹.

The target of a further test is T2, Recombinant human CD4 (R&D Systems, Cat. 10327-CD) (human, UniProt P01730 26-390, limits assumed).
T2 construct: Bought protein; also called huCD4
The test can be described thus: BLI (Octet Red384), purified antibody on anti-mouse Fc sensors, human CD4 100/50/25 nM, global 1:1 fit.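 Further: antibodies loaded at 10 µg/mL, curves fitted across association and dissociation phases, with an unrelated mouse-derived antibody serving as internal reference control.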
As for B6, the Kd was found to be 14 nM, the Response worked out at 0.16, the koff is 0.0012 s⁻¹ and the kon came to 86000 M⁻¹ s⁻¹.
Turning to B7, the Kd came to 13 nM, the Response was 0.25, the koff is 0.0022 s⁻¹ and the kon was 170000 M⁻¹ s⁻¹.
On the same counts, the results for B8 are less than 0.001 nM, 0.2, less than 1e-07 s⁻¹ and 84000 M⁻¹ s⁻¹.
As to B9, the Kd turned out to be 1.8 nM, the Response was found to be 0.22, the koff is 0.00021 s⁻¹ and the kon amounted to 110000 M⁻¹ s⁻¹.
For B10, in that order: 3 nM, 0.17, 0.00029 s⁻¹ and 95000 M⁻¹ s⁻¹.
On the same counts, the results for B11 are 11 nM, 0.21, 0.0013 s⁻¹ and 120000 M⁻¹ s⁻¹.
On the same counts, the results for B12 are 7.1 nM, 0.19, 0.0006 s⁻¹ and 85000 M⁻¹ s⁻¹.
On to B13, for which the Kd worked out at 14 nM, the Response worked out at 0.1, the koff is 0.0022 s⁻¹ and the kon was found to be 160000 M⁻¹ s⁻¹.
In the case of B14, the Kd is 3.1 nM, the Response came out at 0.2, the off-rate constant (koff) was 0.00049 s⁻¹ and the kon was 160000 M⁻¹ s⁻¹.
For the molecule B15, the Kd worked out at 6.6 nM, the Response was found to be 0.12, the koff came to 0.00078 s⁻¹ and the kon was 120000 M⁻¹ s⁻¹.
For B16, in that order: 0.38 nM, 0.19, 0.00019 s⁻¹ and 500000 M⁻¹ s⁻¹.
With B17, the Kd was found to be 8.4 nM, the Response was found to be 0.22, the koff came out at 0.0014 s⁻¹ and the kon came to 170000 M⁻¹ s⁻¹.
For B18, in that order: 11 nM, 0.17, 0.0014 s⁻¹ and 130000 M⁻¹ s⁻¹.
For B19, in that order: 20 nM, 0.15, 0.0035 s⁻¹ and 180000 M⁻¹ s⁻¹.
Regarding B20, the Kd came out at 10 nM, the Response was 0.14, the koff came out at 0.0017 s⁻¹ and the kon came to 160000 M⁻¹ s⁻¹.
